{
  "source": "patent US5958721",
  "target": "rabbit MAP kinase kinase (MAPKK) (rabbit) (UniProt P29678)",
  "data": [
    {"substance": "ΔRaf-1 (human Raf-1 lacking the first 324 amino acids) (from UniProt P04049) (enzyme)", "values": [
      {"measurement": "MAPKK phosphorylation in S. pombe (32P-orthophosphate labelling, immunoprecipitation, phosphorimager)", "result": "> 5", "unit": "fold"}
    ]}
  ]
}
